The subject of the data set is biotinylated anti-BRD7 Fab fragment (murine IgG1 isotype; bFab) (Mus musculus). The data set can be described thus: pulldown. Conditions: streptavidin bead capture with QPCR readout; PBSM (PBS with 1 mM MgCl2), overnight.

Take “GCAAAGACATCTGGACACGCCACTAAGTGGAGGTGATCTGTACTTCATTTATGAGATCGCGGCGAGGAGAAGGAGACTTAGAGGC [aptamer 228 (10AptR1)]”: the dissociation constant (Kd) is 0.011 µM.

The values above are taken from patent publication US20170335314.
